Laboratory results: US20260022175A1 (Chugai, published 2026)
Positions count from the first letter of the chain named. One block for each binder: values may come before it.

Assays:
[1] = target: T1, Abatacept (human IgG1 constant region fused to hCTLA4) (human, UniProt P16410 38-161, biotinylated by amine coupling); experiment: phage ELISA
T1 construct: bought drug; also called Abatacept-Biotin; biotin-labeled abatacept
T1 sequence (looked up): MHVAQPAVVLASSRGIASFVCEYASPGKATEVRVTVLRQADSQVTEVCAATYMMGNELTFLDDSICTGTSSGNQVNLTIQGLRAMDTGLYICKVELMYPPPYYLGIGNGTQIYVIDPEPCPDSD

[2] = target: T2, mCTLA4-His (mouse CTLA4 extracellular region linked with a His-tag) (mouse, UniProt P09793 36-161); experiment: SPR 37C, ATP 10 µM
[3] = target: T2, mCTLA4-His (mouse CTLA4 extracellular …); experiment: SPR 37C, ATP 100 µM
[4] = target: T3, hCTLA4-His-BAP (human CTLA4 extracellular region with C-terminal His-tag and BAP-tag) (human, biotin on the BAP-tag); experiment: SPR 37C, ATP 10 µM
T3 construct: also called hCTLA4-His-Biotin
T3 sequence (chain, as listed by the source limits assumed): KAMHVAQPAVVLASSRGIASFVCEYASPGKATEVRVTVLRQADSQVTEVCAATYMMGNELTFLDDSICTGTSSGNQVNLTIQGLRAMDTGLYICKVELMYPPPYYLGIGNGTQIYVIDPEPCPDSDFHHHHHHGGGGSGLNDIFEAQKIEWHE

[5] = target: T3, hCTLA4-His-BAP (human CTLA4 …); experiment: SPR 37C, ATP 10 µM; remark: listed apart in the source
[6] = target: T3, hCTLA4-His-BAP (human CTLA4 …); experiment: SPR 37C, ATP 100 µM
[7] = target: T3, hCTLA4-His-BAP (human CTLA4 …); experiment: SPR 37C, no ATP, steady state model

- binding result [1]: binds
B1: ABAM001 (antibody, human IgG1, V domains shown)
VH: EVQLVESGGDLVKPGGGLRLSCAASGFTFSSYTMHWVRQAPGKGLEWVSSISSRSRYKYYADSVKGRFTISRDNAKNSLYLQMNSLRAEDTAVYYCARFGIKNKRNWVLDYWGQGTLVTVSS
VL: QSALTQPPSASGSPGQTVTISCTGTSTDVGAYNYVSWYQQHPGKAPKLMIYQVSKRPSGVPDRFSGSKSGNTASLTVSGLQAEDEADYFCSLYTTRPQLAFGGGTKLTVL
notes: also called ABADh11-4_020

- binding result [1]: binds
B2: ABAM003 (antibody, human IgG1, V domains shown)
VH: B1 VH with S31G, K58A, Y59S, K104H, R105L, L109F
VL: QSALTQPPSASGSPGQTVTISCTGTSSDVGDYNYVSWYQQHPGKAPKLMIYGVSKRPSGVPDRFSGSKSGNTASLTVSGLQAEDEADYFCSTVSTSHSPVFGGGTKLTVL
notes: also called ABADh12-4_014

- Kd [2]: 110 nM
- Kd [3]: 110 nM
B3: hUH02-G1d/hUL01-k0 (antibody, human IgG1, kappa, V domains shown)
VH: QVQLQESGPGLVKPSETLSLTCTVSGYSISSGYGWNWIRQPPGKGLEWIGFIYYEGSTYYNPSIKSRISITRDTSKNQFFLQVNSVTTEDTATYYCARQTGYFDYWGQGTLVTVSS
VL: DIVMTQSPDSLAVSLGERATINCKSSQSLFNSNAKTNYLNWYQQKPGQPPKLLIYYASTRHTGVPDRFSGSGSGTDFTLTISSLQAEDVAVYYCQQWYDYPYTFGAGTKVEIKR
notes: also called anti-mouse CTLA4 antibody

- fold enhancement of binding ability against parent 04H1207-G1m/04L1086-lam1 [4]: ~10 fold
B4: 04H1389-G1m/04L1086-lam1 (antibody, human IgG1, lambda, V domains shown)
VH: EVQLVESGGGLVKPGGSLRLSCAASGFTFSSKTMNWVRQAPGKGLEWVSSISTQSHYIYYAESVKGRFTISRDNAKNSLYLQMNSLRAEDTAVYYCARYGKREDMLWVFDYWGQGTLVTVSS
VL: QSALTQPPSASGSPGQTVTISCDGPSTGVGDYNYVHWYQQHPGKAPKLMIYFTSKKPSGVPDRFSGSKSGNTASLTVSGLQAEDEADYFCQTYAAPLGPMFGGGTKLTVLG

- fold enhancement of binding ability against parent 04H1208-G1m/04L1086-lam1 [4]: ~10 fold
B5: 04H1382-G1m/04L1086-lam1 (antibody, human IgG1, lambda, V domains shown)
VH: B4 VH with E62R
VL: B4 VL

- Kd [5]: 360 nM
- Kd [6]: 56 nM
- Kd [7]: 6500 nM
B6: 04H1077-G1m/04L1305-k0MT (antibody, human IgG1, kappa, V domains shown)
VH: B4 VH with G10D, S17G, K32R, Q54R, H56G
VL: DIVMTQSPLSLPVTPGEPASISCDGPSTGVGDYNYVHWYQQKPGQAPRLLIYFTSKKPSGVPDRFSGSGSGTDFTLKISRVEAEDVGVYYCQTYAAPLGPMFGQGTKLEIKR
